In the DeepSol protein solubility set:

Assay: soluble on expression in E. coli; label from the status in PepcDB or PDB records

Sequence | soluble on expression in E. coli
MGSDKIHHHHHHMCRLIGYLGNAIPLDELLYKQEHSLYQQSYSPLELKSGVVCADGVGVGWYDQVGKPFIYRNTIPMWNDPNLEELSNYVQSTCTVGYARLAGIGESLDISNCQPFRSDQLLFVHNGEISNFQQTLYRPIRESLSDATYRLIKGTTDSEHIFALLVQMWQSSPDSTLFWALGATLEKLTELASEYNTSFSANLIVSDGEAIAAIRYAYRTQAPTLYWSYDALKHPNQVIVASEPLSNNQNWTAFDEQSMLFFQAQSLEPRISLLKKFSAIGV | not soluble
NGEVEVPKTELEEIQQQCNQVTDDSLESTRRMLNMCEESKEAGIRTLVMLDEQGEQLDRIEEGLDQINQDMKDAEKNLEGMEK | soluble
TGMSREEVESLIQEVLEVYPEKARKDRNKHLAVNDPAVTQSKKCIISNKKSQPGLMTIRGCAYAGSKGIVWGPIKDMIHISHGPVGCGQYSRAGRRNYYIGTTGVNAFVTMNFTSDFQEKDIVFGGDKKLAKLIDEVETLFPLNKGISVQSECPIGLIGDDIESVSKVKGAELSKTIVPVRCEGFRGVSQSLGHHIANDAVRDWVLGKRDEDTTFASTPYDVAIIGDYNIGGDAWSSRILLEEMGLRCVAQWSGDGSISEIELTPKVKLNLVHCYRSMNYISRHMEEKYGIPWMEYNFFGPTKTIESLRAIAAKFDESIQKKCEEVIAKYKPEWEAVVAKYRPRLEGKRVMLYIGGLRPRHVIGAYEDLGMEVVGTGYEFAHNDDYDRTMKEMGDSTLLYDDVTGYEFEEFVKRIKPDLIGSGIKEKFIFQKMGIPFREMHSWDYSGPYHGFDGFAIFARDMDMTLNNPCWKKLQAPWEASEGAEKVAASA | soluble
MAHHHHHHMSITAGTLPPVKGTSVKKSPRKGRPADSMGNGTGAAADPHCYHKCRCYGHDDTLPNYKLLTIPRTNNYYAATGGCPCVPRVAAHPGSWRLKEGQLRSSTYRCGTGCIKKSAALTLGCCHHSGDQYGWRRGPHTVLDKNTAATGKCDTFGNLAFKSTSRAYCAVGGDDLSDVSSASPQKLEDLEALILEEHQQRMRVEEDVDELAGIQRNGTADWYKKIHHDAERRRLLAQISEVELQDLLRDVKNIVDRPLNQTNMDLLRRILHRQEHLQRQREYYAAQELE | not soluble
MSYTAHEAQAALAPQFDAYSKAIEGSDWDTVATFYHPNGVIVQKGKEAFYGKDAIKAELLKFSEATGRSTSSFSNQKYEGAGDYLIITADFSSETEKAGTVKGKFVQIWKKEGDRHLIYHDEFEVNP | not soluble
MGSDKIHHHHHHMGNVSTFSIPGPARIPSAATTPAPHPWNRYVALGDSFTEGYGDPEPQSPGGVRGWADRVAEELSLGHQDFAYANLAVRGRLLQQIMDDQLGPALELRPDLVTLSAGGNDLVFRGSDPDKLAERLDPAIGLLSATGATVVLFTGPDWGNTPVFGRIRGKVAIFNENLRTIAARHDGVVADLWTLRQLAAPHMWDPDRLHFSPLGHHTIAAMVLETLNVPHTLKPLEPKVLPVSSWREARSSDLVWAKDYLFPWVVRRVRQRPANLGLKAKRPEPGPIFGPGVAHGPFPAGPLTAGKP | not soluble
MTNLFVRSGISFVDRSEVLTHIGNEMLAKGVVHDTWPQALIAREAEFPTGIMLEQHAIAIPHCEAIHAKSSAIYLLRPTNKVHFQQADDDNDVAVSLVIALIVENPQQQLKLLRCLFGKLQQPDIVETLITLPETQLKEYFTKYVLDSDE | soluble
LVRGGWLWRQSSILRRWKRNWFALWLDGTLGYYHDETAQDEEDRVVIHFNVRDIKVGQECQDVQPPEGRSRDGLLTVNLREGSRLHLCAETRDDAIAWKTALMEANSTPAPAGATVP | soluble
MVGRVAQGKEPLHPGPRRQPGGARPGADLGPGGGVNPSPRKRVALFTDGACLGNPGPGGWAALLRFHAHEKLLSGGEACTTNNRMELKAAIEGLKALKEPCEVDLYTDSHYLKKAFTEGWLEGWRKRGWRTAEGKPVKNRDLWEALLLAMAPHRVRFHFVKGHTGHPENERVDREARRQAQSQAKTPCPPRAPTLFHEEA | soluble
SNAMLSANQIKFLRSLRERKYRLREQAFAVEGPKLVGEMLPFYRCRMLVGTAAMLRAVSTPHDAEVVELPESFDFKRISTQTTPQPLMAVFDLPAEPEPVVEGLTLLLDGVQDPGNVGTILRTADWFGIRHVWLGTGSADVFSPKVVQASMGALARVQPTPLKNTVDTLAYFRRQGIPVYGAFLDGQSLYEAPLPNFTEPAILVLGSEGRGISPEVAAEITDRLTIPASGLSVKGHTESLNVAIATAILCSEWRRRS | soluble
MNQLCRAVPSLRSAVRLASSGRLYTKKHEWVLVENGVGTVGITDFATEQLGDVVFIELPDEGTEISKGDSTGAVESVKAASDIYAPISGTVTQKNVKLEEEAGLINKSPFEKGWLYKLKVKSADELEKLLNEEQYAKFKKDEEAAH | not soluble
MKRDAKDHARNRLMNFYIKKAPTYSAIVKIEHFENDAPSEAKDFEPLVVYSLNKKKRWEINQEFLDSSSEGDDSKSVIIDREIPDLYFAWWSLGNVHSHDCVNHSKPVNSSQIDNAKKEEKVVGYHIVRVPKNHKKVFDNKCIRYIGLRYPEFLGYSSKDWPALQYEMKELEEEHEELEKENASLEAESTETTKPTGFYNLDEHFVAKKQRKPKGWLTVE | not soluble
MGSDKIHHHHHHMSKFHELTVASVTRETRDAVAVTFAVPEDLADTYRYVQGQHLTLRAGIGGEDVRRSYSICSAVQDRRLRVAIKRVDGGMFSNWANDALQPGMTLEVMPPSGHFHVPLSDTHSKHYVAFAAGSGITPMLSIIKTTLMTEPDSRFTLFYGNRASSSVLFKEELEDLKDTYLERFNLVFILSREQLDIDLFNGRIDGEKVRALLRHWVRPQDIDVAFICGPHSMMEEVSQALQENGVDKARIKRELFATSIPAARPAAHAHKQLGQQQCEVTVIQDGRTRQFTLEKNKETILDAALAQGIELPYSCKGGVCSTCRCKRIEGEVDMDVNFALEDYEVARGFILSCQSYAVTDKLVIDFDQET | not soluble
MGHHHHHHSHMECETDEQKQGSDENMSECETSSVCSSSDTGLFTNDEGRQGDDEQSDWFYEGECVPGFTVPNLLPKWAPDHCSEVERMDSGLDKFSDSTFLLPSRPAQRGYHTRLNRLPGAAARCLRKGRRRLVGKETSINTLGTERISHIISDPRQKDFWLPSAGKRERNQFNPLSPLYSLDVLADASHRRCSPAHCSARQANVHWGPPCSRVIKRKRKPVATASLSSPSAVHMDAVEPTTPASQAPKSPSSEWLVRTSAAEKATDATTATFFKMPQEKSPGYS | not soluble
DEQEKLLRLVDNSVELMSLLGTNNINSYINKAGMELLGFDTMEQVLRTPISELHLKEDFEKVSANVITSLQDKGRWSGQMNVRNLKSGEVIPVYNNTVRIDDPATGEILAFGAVMRDMR | not soluble
METQLSVQLGLDSLLTDFGLESVMNKQQQLFANMGLSDIGAPTPSTAIPVPNAHLHPSMVAGSDPSNPVVGFGFGSPSSTTSSSPPLSNSPTIEQQQHAQLTAMMQGIMSNNNVAVSNGSGVQVASVPAVHCSGCKSNETATSFCQDCNANLCDNCTMAHKFMHCFADHRVVSLTTPGTGSSSSSTSSSSSASSTSSHQVPSLGGKQSPDSMMLGSGKRSVLCLQHRASELVFFCVSCNLAICRDCTVSDHPSGTHQYELIADVADKQMLKMEQLIADARSKHADMLDMFKQVDNKQQVLTASLHNAHAQLEETVSNLINVIQDQKKTLAKDIDNAFAAKQIQLTMVDKRIQSMADKLSQTIEFSRRLMSFASPAEVMVFKQLLDTRLQLFLGFNPDTSGVLMTPCEIEYLGAAGLFNNSASTVSQLLGSVHGGSPINNAPAANDFLMPQAGLAPIGRAQSRIIPIEQNQLARSPPHHIAGSLPMNAYSDSNLLRPNKDFGGSSQSLGPFNPLGASVPGAAADPFSSQYDKWSLGVEPSVGGLLEGGNVDEEKFQTLFPPSRSQIKRQKMIYHCKFGEFGVMEGQFTEPSGVAVNGQGDIVVADTNNHRIQVFDKEGRFKFQFGECGKRDGQLLYPNRVAVNRTTGDFVVTERSPTHQIQVYNQYGQFLRKFGANILQHPRGVCVDSKGRIIVVECKVMRVIIFDMFGNILQKFSCSRYLEFPNGVCTNDKNEILISDNRAHCIKVFSYEGQYLRQIGGEGVTNYPIGVGINSLGEVVVADNHNNFNLTVFSQDGTMIGALESRVKHAQCFDVALVDDGSVVLASKDYRLYLYRFLPATSGQSTSSASSQI | not soluble
MSLDTTGITPTSIRIGSTSPQSGPVSAYGVQARCQAAYFKMINDRGGIAGRKIDFIYYDDAFNPAKTVEQTRKLVESDEVALLFSNLGTATNSAIVKYANAKKIPHLFLSVNGDKWSDYKAHPWSIGFAPSARTEAAIFVKHMLAEKPDAKFAVLYQNDDFGKDFVLGAKDVLGERESRQLVTISHETSDPTIDSQILQLRAAAPDALISGTTAKFTAQAIRKVAETRWQVRHYITGGSSSYAGTIGPAGPENAVGVISSAYLKDVADPAWKDDQGIKDFLAFMQSYFPEGNKDDFYNLYAYTVASALVKVLTQCGDGWTRENIMAQATNLKDVELPTLLPGIRVNTSPTDYRPLTQVQLQKWDGKAWVRFGDVLGAEGHHHHHH | soluble
MAHHHHHHMRLILLGAPGAGKGTQANFIKEKFGIPQISTGDMLRAAVKAGTPLGVEAKTYMDEGKLVPDSLIIGLVKERLKEADCANGYLFDGFPRTIAQADAMKEAGVAIDYVLEIDVPFSEIIERMSGRRTHPASGRTYHVKFNPPKVEGKDDVTGEPLVQRDDDKEETVKKRLDVYEAQTKPLITYYGDWARRGAENGLKAPAYRKISGLGAVEEIRARVRRAQVSE | soluble
MGHHHHHHSHGGSRTGPVSLQGDPKQAPWSSSQSNSSRKTLFLSLCPPFPTQPQIHLHFTEHRASSHQGGPFKLQICLSSLYSNLLLHCHYREVHHMSGHRTESAGGHLFLPQDLRWKSPGLGVFAVQSVYELARRHNVSPFYSGPP | not soluble
MYARYAGLIFDMDGTLLDTEPTHRKAWREVLGRYGLRFDEQAMVALNGSPTWLIAQSIIELNHADLDPLSLAREKTDAVKSILLDCVEPLPLVEVVKAWHGRRPMSVGTGSESAIAEALLAHLGLRRYFDAVVAADHVQHHKPAPDTFLLCAQRMGVMPTQCVVFEDADFGLQAARAAGMDAVDVRLL | not soluble
MCFTKKSTKTPPEPISKDSADKKKKTTIKKGKKFPMMNMIVKNKKNEVQVEKKPEEVPEQNKSVKDQTKKEEVKVVEEDKVEKKVEQKKPIINRPNCVAINPRSATSGKKNKYKFKYGQIDQQELSINNDKTEYLENAQLTKLMSHADVRALMGGQFAQGENADTNNCQDTVEEVDSEMLEIAFSPLLAVIPREDERVYGAFVHPTEQKKNAEA | soluble
MSLELVSLLMQDCQSTGDIQSKLKRLFAGTIEQMLEAEMEDHLGYEKNSIEGNNSGNSRNGYNRKTIISDYGASEIAVPRDRNGEFEPKILEKRQTRTDEIEQKILSMYSKGMSQRDIEDTLREIYGAEIPQTLISKITDKILPEVNEWQNRPLESVYPIIYFDGIVFKSRKDSQIINKCVYSVLGIDMNGHKDILGIWLSENESASFYASICSDLKKRGIQDIFIACHDNLKGLGEAINAVFPKTKQQLCIVHQIRNSTKFVQYKDRKAICADLKKIYGAVNLDDAEYAKEEFREKWDKKYPSILRSWDANWAELTTFFNYPEQIRHLIYTTNAVEAYHRMVRKFTKTKSIFPTDDSIRKVVFLSSREITKKWTQPSRGWPMAYSQIMIFFADRFIAEGHHHHHH | soluble
MGSDKIHHHHHHMNNESLTLDAYPVEVEFPDIRPYAEGNCGIPYVFTFDSGVAGPHVMVNALTHGNEVCGAITVKGLLDAGVKPRRGRVTFAFANVDAYACFDPARPDASRFVDQDFNRVWTSAVLDDASRDSSELRRARAMRPVIDTVDLLLDLHSMHEKSRPLIVSGPLDKGIALARALGAPADVIVDEGHPEGRRMRDYADFGDPASARNALLIECGQHWETSAVTVARDSAARFLLNAGVIDAQDVPTGWLQPLAATQRVVRVTEPVVANSMDFRFAGPYTGLETFMEAGTVIGWRDGEPVVTPYPNCVLVMPSLRQLRPGVTVVRLGQLEA | not soluble
